Test results reported in patent publication US20160200782A1 (MOERAE MATRIX, published 2016).

T1: SAPK4(h) (human, UniProt O15264 1-365)
T1 sequence (looked up): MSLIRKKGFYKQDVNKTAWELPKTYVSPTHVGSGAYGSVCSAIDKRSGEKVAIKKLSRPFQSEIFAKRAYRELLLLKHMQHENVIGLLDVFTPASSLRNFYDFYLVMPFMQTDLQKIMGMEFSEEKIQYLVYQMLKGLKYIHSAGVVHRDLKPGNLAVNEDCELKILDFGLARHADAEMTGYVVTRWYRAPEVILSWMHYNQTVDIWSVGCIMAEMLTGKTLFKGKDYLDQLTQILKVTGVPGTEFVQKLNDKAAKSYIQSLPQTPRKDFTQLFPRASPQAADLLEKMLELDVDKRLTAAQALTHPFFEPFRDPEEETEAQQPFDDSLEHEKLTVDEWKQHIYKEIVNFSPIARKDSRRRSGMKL

T2: ARK5(h) (human, UniProt O60285 1-661, limits assumed)
T2 sequence (looked up): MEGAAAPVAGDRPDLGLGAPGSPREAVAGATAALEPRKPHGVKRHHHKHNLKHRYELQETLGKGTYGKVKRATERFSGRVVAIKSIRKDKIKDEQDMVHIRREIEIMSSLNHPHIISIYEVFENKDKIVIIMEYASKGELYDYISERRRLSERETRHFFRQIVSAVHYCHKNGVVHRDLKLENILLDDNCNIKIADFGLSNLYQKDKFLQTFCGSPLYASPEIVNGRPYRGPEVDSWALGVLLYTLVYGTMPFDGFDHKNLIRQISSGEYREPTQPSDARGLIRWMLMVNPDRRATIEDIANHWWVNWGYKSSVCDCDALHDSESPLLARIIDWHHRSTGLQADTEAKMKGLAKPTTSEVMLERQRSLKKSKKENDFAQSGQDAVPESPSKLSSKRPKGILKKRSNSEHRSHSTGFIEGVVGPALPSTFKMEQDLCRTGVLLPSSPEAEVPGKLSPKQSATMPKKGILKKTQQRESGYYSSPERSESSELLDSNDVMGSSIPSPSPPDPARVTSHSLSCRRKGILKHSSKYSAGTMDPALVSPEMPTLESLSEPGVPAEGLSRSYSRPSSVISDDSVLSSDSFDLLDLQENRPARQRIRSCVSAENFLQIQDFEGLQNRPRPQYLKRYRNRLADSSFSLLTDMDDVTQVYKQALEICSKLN

T3: BrSK2(h) (human, UniProt Q8IWQ3 1-736, limits assumed)
T3 sequence (looked up): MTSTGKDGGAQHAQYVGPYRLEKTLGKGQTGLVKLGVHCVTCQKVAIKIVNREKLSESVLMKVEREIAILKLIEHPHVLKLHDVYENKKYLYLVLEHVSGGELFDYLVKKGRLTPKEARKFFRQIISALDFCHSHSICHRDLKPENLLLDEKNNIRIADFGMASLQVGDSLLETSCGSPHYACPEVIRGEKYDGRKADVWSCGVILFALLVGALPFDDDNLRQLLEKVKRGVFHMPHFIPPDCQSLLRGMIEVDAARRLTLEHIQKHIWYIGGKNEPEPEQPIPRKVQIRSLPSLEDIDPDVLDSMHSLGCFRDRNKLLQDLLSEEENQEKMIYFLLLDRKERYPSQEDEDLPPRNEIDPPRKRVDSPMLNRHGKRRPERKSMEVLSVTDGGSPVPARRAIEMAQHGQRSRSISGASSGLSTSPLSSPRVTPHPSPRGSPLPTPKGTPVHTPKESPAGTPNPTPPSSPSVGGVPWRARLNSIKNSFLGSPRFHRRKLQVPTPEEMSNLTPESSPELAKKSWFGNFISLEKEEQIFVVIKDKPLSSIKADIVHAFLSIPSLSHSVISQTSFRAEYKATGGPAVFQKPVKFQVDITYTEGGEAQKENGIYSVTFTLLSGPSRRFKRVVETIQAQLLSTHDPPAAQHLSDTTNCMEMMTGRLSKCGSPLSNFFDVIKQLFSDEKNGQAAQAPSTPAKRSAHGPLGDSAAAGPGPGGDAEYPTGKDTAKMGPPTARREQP

T4: EphA1(h) (human, UniProt P21709 569-976, limits assumed)
T4 sequence (looked up): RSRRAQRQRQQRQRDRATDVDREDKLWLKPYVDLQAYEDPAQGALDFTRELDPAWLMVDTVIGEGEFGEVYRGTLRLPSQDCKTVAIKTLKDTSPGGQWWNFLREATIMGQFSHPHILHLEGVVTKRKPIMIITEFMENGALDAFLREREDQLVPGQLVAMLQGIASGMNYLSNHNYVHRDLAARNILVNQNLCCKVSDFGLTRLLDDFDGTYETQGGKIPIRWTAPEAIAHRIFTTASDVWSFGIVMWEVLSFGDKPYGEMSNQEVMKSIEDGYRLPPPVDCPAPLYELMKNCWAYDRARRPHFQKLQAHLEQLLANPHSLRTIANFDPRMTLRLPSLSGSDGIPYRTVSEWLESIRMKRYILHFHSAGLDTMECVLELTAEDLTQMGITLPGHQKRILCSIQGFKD


Key:
Test in all cases: cell-based or functional assay
BTK(R28H)(h) = BTK(R28H)(h) (human, UniProt Q06187 1-659)
BTK(R28H)(h), sequence (Q06187 whole entry R28H): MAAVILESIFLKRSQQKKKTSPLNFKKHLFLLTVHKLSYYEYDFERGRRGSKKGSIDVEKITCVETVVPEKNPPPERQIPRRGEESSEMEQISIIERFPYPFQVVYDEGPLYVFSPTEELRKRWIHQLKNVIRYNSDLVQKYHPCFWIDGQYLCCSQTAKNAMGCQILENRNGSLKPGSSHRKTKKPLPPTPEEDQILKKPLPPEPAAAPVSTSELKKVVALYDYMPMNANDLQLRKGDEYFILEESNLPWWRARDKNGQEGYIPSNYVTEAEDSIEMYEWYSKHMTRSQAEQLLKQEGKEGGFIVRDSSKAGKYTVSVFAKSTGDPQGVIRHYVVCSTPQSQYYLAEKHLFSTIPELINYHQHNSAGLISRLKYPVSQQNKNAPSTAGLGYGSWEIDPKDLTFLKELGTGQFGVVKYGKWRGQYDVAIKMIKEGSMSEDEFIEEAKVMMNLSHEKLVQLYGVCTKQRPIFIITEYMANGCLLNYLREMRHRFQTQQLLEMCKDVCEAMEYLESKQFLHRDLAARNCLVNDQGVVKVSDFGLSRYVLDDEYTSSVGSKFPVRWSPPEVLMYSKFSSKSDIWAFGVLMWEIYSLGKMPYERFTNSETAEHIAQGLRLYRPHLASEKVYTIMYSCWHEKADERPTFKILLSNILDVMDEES

CaMKI(h) = CaMKI(h) (human, UniProt Q14012 1-370, limits assumed)
CaMKI(h), sequence (Q14012 whole entry): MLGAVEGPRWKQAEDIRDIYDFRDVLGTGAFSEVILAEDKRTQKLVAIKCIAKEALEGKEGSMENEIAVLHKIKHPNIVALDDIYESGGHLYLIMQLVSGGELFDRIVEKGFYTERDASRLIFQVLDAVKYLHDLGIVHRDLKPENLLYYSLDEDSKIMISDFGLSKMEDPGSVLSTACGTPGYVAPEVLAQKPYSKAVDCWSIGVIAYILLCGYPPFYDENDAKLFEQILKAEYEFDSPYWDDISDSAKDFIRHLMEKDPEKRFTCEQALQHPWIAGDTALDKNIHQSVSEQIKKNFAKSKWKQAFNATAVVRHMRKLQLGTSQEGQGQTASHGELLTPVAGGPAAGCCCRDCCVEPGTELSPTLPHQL

SAPK4(h) = molecular target: T1, SAPK4(h)
ARK5(h) = molecular target: T2, ARK5(h)
BrSK2(h) = molecular target: T3, BrSK2(h)
EphA1(h) = molecular target: T4, EphA1(h)
Hck(h) activated = Hck(h) activated (human, UniProt P08631 251-518, limits assumed)
Hck(h) activated, sequence (P08631 251-518 limits assumed): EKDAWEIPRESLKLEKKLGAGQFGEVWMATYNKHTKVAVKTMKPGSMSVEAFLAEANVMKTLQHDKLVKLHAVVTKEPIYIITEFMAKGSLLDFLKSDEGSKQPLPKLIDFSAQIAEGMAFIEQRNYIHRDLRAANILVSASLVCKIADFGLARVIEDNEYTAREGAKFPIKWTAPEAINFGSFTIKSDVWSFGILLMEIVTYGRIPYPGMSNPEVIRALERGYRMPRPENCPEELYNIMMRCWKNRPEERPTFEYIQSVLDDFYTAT
Further: test concentration or dose not given here.

| % activity (BTK(R28H)(h)) [%] | % activity (CaMKI(h)) [%] | % activity (SAPK4(h)) [%] | % activity (ARK5(h)) [%] | % activity (BrSK2(h)) [%] | % activity (EphA1(h)) [%] | % activity (Hck(h) activated) [%] | Binder |
| --- | --- | --- | --- | --- | --- | --- | --- |
| 24 | 0 | 91 | 69 | 86 | 61 | 81 | KAFAKLAARLYRKALARQLGVAA [MMI-0400] |
| 74 | 1 | 96 | 78 | 83 | 73 | 82 | FAKLAARLYRKALARQLGVAA [MMI-0300] |
